Data published in patent publication US20260209386A1 (MYTHIC THERAPEUTICS, published 2026).

B1: MYT11208 (antibody, V domains shown)
VH: EVQLVESGGGLVQPGGSLRLSCTASGIDLSSYVMGWVRQAPGKGLEWVGYIYGGGGTYYATWARGRFTISRDTSKNTVYLQMNSLRAEDTAVYFCARHAADFYFNLWGQGTLVTVSS
VL: EIVMTQSPSTLSASVGDRVIITCQASQSISSYLAWYQQKPGKAPKLLIYDISDLASGVPSRFSGSGSGAEFTLTISSLQPDDFATYYCQSYYWISNSGAAFGQGTKLTVL
notes: HC variant of MYT9460, sub at HCV pos 98 (H3 03)
B2: MYT11226 (antibody, V domains shown)
VH: EVQLVESGGGLVQPGGSLRLSCTASGIDLSSYVMGWVRQAPGKGLEWVGYIYGGGGTYYATWARGRFTISRDTSKNTVYLQMNSLRAEDTAVYFCARAAADFYFNLWGQGTLVTVSS
VL: EIVMTQSPSTLSASVGDRVIITCQASQSIHSYLAWYQQKPGKAPKLLIYDISDLASGVPSRFSGSGSGAEFTLTISSLQPDDFATYYCQSYYWISNSGAAFGQGTKLTVL
notes: LC variant of MYT9460, sub at LCV pos 30 (L1 07)
B3: MYT11215 (antibody, V domains shown)
VH: EVQLVESGGGLVQPGGSLRLSCTASGIDLSSYVMGWVRQAPGKGLEWVGYIYGGGGTYYATWARGRFTISRDTSKNTVYLQMNSLRAEDTAVYFCARAAADFYFHLWGQGTLVTVSS
VL: EIVMTQSPSTLSASVGDRVIITCQASQSISSYLAWYQQKPGKAPKLLIYDISDLASGVPSRFSGSGSGAEFTLTISSLQPDDFATYYCQSYYWISNSGAAFGQGTKLTVL
B4: MYT11231 (antibody, V domains shown)
VH: EVQLVESGGGLVQPGGSLRLSCTASGIDLSSYVMGWVRQAPGKGLEWVGYIYGGGGTYYATWARGRFTISRDTSKNTVYLQMNSLRAEDTAVYFCARAAADFYFNLWGQGTLVTVSS
VL: EIVMTQSPSTLSASVGDRVIITCQASQSISSYLAWYQQKPGKAPKLLIYHISDLASGVPSRFSGSGSGAEFTLTISSLQPDDFATYYCQSYYWISNSGAAFGQGTKLTVL
notes: LC variant of MYT9460, sub at LCV pos 50 (L2 01)
B5: MYT11228 (antibody, V domains shown)
VH: EVQLVESGGGLVQPGGSLRLSCTASGIDLSSYVMGWVRQAPGKGLEWVGYIYGGGGTYYATWARGRFTISRDTSKNTVYLQMNSLRAEDTAVYFCARAAADFYFNLWGQGTLVTVSS
VL: EIVMTQSPSTLSASVGDRVIITCQASQSISSHLAWYQQKPGKAPKLLIYDISDLASGVPSRFSGSGSGAEFTLTISSLQPDDFATYYCQSYYWISNSGAAFGQGTKLTVL
notes: LC variant of MYT9460, sub at LCV pos 32 (L1 09)
B6: MYT11235 (antibody, V domains shown)
VH: EVQLVESGGGLVQPGGSLRLSCTASGIDLSSYVMGWVRQAPGKGLEWVGYIYGGGGTYYATWARGRFTISRDTSKNTVYLQMNSLRAEDTAVYFCARAAADFYFNLWGQGTLVTVSS
VL: EIVMTQSPSTLSASVGDRVIITCQASQSISSYLAWYQQKPGKAPKLLIYDISDHASGVPSRFSGSGSGAEFTLTISSLQPDDFATYYCQSYYWISNSGAAFGQGTKLTVL
notes: LC variant of MYT9460, sub at LCV pos 54 (L2 05)
B7: MYT11219 (antibody, V domains shown)
VH: EVQLVESGGGLVQPGGSLRLSCTASGIDLSSYVMGWVRQAPGKGLEWVGYIYGGGGTYYATWARGRFTISRDTSKNTVYLQMNSLRAEDTAVYFCARAAAAFYFNLWGQGTLVTVSS
VL: EIVMTQSPSTLSASVGDRVIITCQASQSISSYLAWYQQKPGKAPKLLIYDISDLASGVPSRFSGSGSGAEFTLTISSLQPDDFATYYCQSYYWISNSGAAFGQGTKLTVL
notes: HC variant of MYT9460, printed as H3 05 with HCV pos 101, new residue not marked
B8: MYT11214 (antibody, V domains shown)
VH: EVQLVESGGGLVQPGGSLRLSCTASGIDLSSYVMGWVRQAPGKGLEWVGYIYGGGGTYYATWARGRFTISRDTSKNTVYLQMNSLRAEDTAVYFCARAAADFYHNLWGQGTLVTVSS
VL: EIVMTQSPSTLSASVGDRVIITCQASQSISSYLAWYQQKPGKAPKLLIYDISDLASGVPSRFSGSGSGAEFTLTISSLQPDDFATYYCQSYYWISNSGAAFGQGTKLTVL
notes: HC variant of MYT9460, sub at HCV pos 104 (H3 09)
B9: MYT11209 (antibody, V domains shown)
VH: EVQLVESGGGLVQPGGSLRLSCTASGIDLSSYVMGWVRQAPGKGLEWVGYIYGGGGTYYATWARGRFTISRDTSKNTVYLQMNSLRAEDTAVYFCARAHADFYFNLWGQGTLVTVSS
VL: EIVMTQSPSTLSASVGDRVIITCQASQSISSYLAWYQQKPGKAPKLLIYDISDLASGVPSRFSGSGSGAEFTLTISSLQPDDFATYYCQSYYWISNSGAAFGQGTKLTVL
notes: HC variant of MYT9460, sub at HCV pos 99 (H3 04)
B10: MYT11227 (antibody, V domains shown)
VH: EVQLVESGGGLVQPGGSLRLSCTASGIDLSSYVMGWVRQAPGKGLEWVGYIYGGGGTYYATWARGRFTISRDTSKNTVYLQMNSLRAEDTAVYFCARAAADFYFNLWGQGTLVTVSS
VL: EIVMTQSPSTLSASVGDRVIITCQASQSISHYLAWYQQKPGKAPKLLIYDISDLASGVPSRFSGSGSGAEFTLTISSLQPDDFATYYCQSYYWISNSGAAFGQGTKLTVL
notes: LC variant of MYT9460, sub at LCV pos 31 (L1 08)
B11: MYT11223 (antibody, V domains shown)
VH: EVQLVESGGGLVQPGGSLRLSCTASGIDLSSYVMGWVRQAPGKGLEWVGYIYGGGGTYYATWARGRFTISRDTSKNTVYLQMNSLRAEDTAVYFCARAAADFYFNLWGQGTLVTVSS
VL: EIVMTQSPSTLSASVGDRVIITCQASHSISSYLAWYQQKPGKAPKLLIYDISDLASGVPSRFSGSGSGAEFTLTISSLQPDDFATYYCQSYYWISNSGAAFGQGTKLTVL
notes: LC variant of MYT9460, sub at LCV pos 27 (L1 04)
B12: MYT11218 (antibody, V domains shown)
VH: EVQLVESGGGLVQPGGSLRLSCTASGIALSSYVMGWVRQAPGKGLEWVGYIYGGGGTYYATWARGRFTISRDTSKNTVYLQMNSLRAEDTAVYFCARAAADFYFNLWGQGTLVTVSS
VL: EIVMTQSPSTLSASVGDRVIITCQASQSISSYLAWYQQKPGKAPKLLIYDISDLASGVPSRFSGSGSGAEFTLTISSLQPDDFATYYCQSYYWISNSGAAFGQGTKLTVL
notes: HC variant of MYT9460, sub at HCV pos 28 (H1 03), second variant at this position, new residue not marked
B13: MYT11220 (antibody, V domains shown)
VH: EVQLVESGGGLVQPGGSLRLSCTASGIDLSSYVMGWVRQAPGKGLEWVGYIYGGGGTYYATWARGRFTISRDTSKNTVYLQMNSLRAEDTAVYFCARAAADFYFNLWGQGTLVTVSS
VL: EIVMTQSPSTLSASVGDRVIITCHASQSISSYLAWYQQKPGKAPKLLIYDISDLASGVPSRFSGSGSGAEFTLTISSLQPDDFATYYCQSYYWISNSGAAFGQGTKLTVL
notes: LC variant of MYT9460, sub at LCV pos 24 (L1 01)
B14: MYT11216 (antibody, V domains shown)
VH: EVQLVESGGGLVQPGGSLRLSCTASGIDLSSYVMGWVRQAPGKGLEWVGYIYGGGGTYYATWARGRFTISRDTSKNTVYLQMNSLRAEDTAVYFCARAAADFYFNHWGQGTLVTVSS
VL: EIVMTQSPSTLSASVGDRVIITCQASQSISSYLAWYQQKPGKAPKLLIYDISDLASGVPSRFSGSGSGAEFTLTISSLQPDDFATYYCQSYYWISNSGAAFGQGTKLTVL
B15: MYT11234 (antibody, V domains shown)
VH: EVQLVESGGGLVQPGGSLRLSCTASGIDLSSYVMGWVRQAPGKGLEWVGYIYGGGGTYYATWARGRFTISRDTSKNTVYLQMNSLRAEDTAVYFCARAAADFYFNLWGQGTLVTVSS
VL: EIVMTQSPSTLSASVGDRVIITCQASQSISSYLAWYQQKPGKAPKLLIYDISHLASGVPSRFSGSGSGAEFTLTISSLQPDDFATYYCQSYYWISNSGAAFGQGTKLTVL
notes: LC variant of MYT9460, sub at LCV pos 53 (L2 04)
B16: MYT11239 (antibody, V domains shown)
VH: EVQLVESGGGLVQPGGSLRLSCTASGIDLSSYVMGWVRQAPGKGLEWVGYIYGGGGTYYATWARGRFTISRDTSKNTVYLQMNSLRAEDTAVYFCARAAADFYFNLWGQGTLVTVSS
VL: EIVMTQSPSTLSASVGDRVIITCQASQSISSYLAWYQQKPGKAPKLLIYDISDLASGVPSRFSGSGSGAEFTLTISSLQPDDFATYYCQHYYWISNSGAAFGQGTKLTVL
notes: LC variant of MYT9460, sub at LCV pos 90 (L3 02)
B17: MYT11233 (antibody, V domains shown)
VH: EVQLVESGGGLVQPGGSLRLSCTASGIDLSSYVMGWVRQAPGKGLEWVGYIYGGGGTYYATWARGRFTISRDTSKNTVYLQMNSLRAEDTAVYFCARAAADFYFNLWGQGTLVTVSS
VL: EIVMTQSPSTLSASVGDRVIITCQASQSISSYLAWYQQKPGKAPKLLIYDIHDLASGVPSRFSGSGSGAEFTLTISSLQPDDFATYYCQSYYWISNSGAAFGQGTKLTVL
notes: LC variant of MYT9460, sub at LCV pos 52 (L2 03)
B18: MYT11217 (antibody, V domains shown)
VH: EVQLVESGGGLVQPGGSLRLSCTASGIDLSSYVMGWVRQAPGKGLEWVGYIYGGGGTYYATWARGRFTISRDTSKNTVYLQMNSLRAEDTAVYYCARAAADFYFNLWGQGTLVTVSS
VL: EIVMTQSPSTLSASVGDRVIITCQASQSISSYLAWYQQKPGKAPKLLIYDISDLASGVPSRFSGSGSGAEFTLTISSLQPDDFATYYCQSYYWISNSGAAFGQGTKLTVL
B19: MYT11237 (antibody, V domains shown)
VH: EVQLVESGGGLVQPGGSLRLSCTASGIDLSSYVMGWVRQAPGKGLEWVGYIYGGGGTYYATWARGRFTISRDTSKNTVYLQMNSLRAEDTAVYFCARAAADFYFNLWGQGTLVTVSS
VL: EIVMTQSPSTLSASVGDRVIITCQASQSISSYLAWYQQKPGKAPKLLIYDISDLAHGVPSRFSGSGSGAEFTLTISSLQPDDFATYYCQSYYWISNSGAAFGQGTKLTVL
notes: LC variant of MYT9460, sub at LCV pos 56 (L2 07)

The binders below were run against T1, Human PTK7 Protein, His Tag, Acro Biosystems (human, UniProt Q13308 31-704) (assay: BLI (Octet), antibody on anti-human Fc sensor, 50 nM PTK7, dissociation at pH 7.4 or 5.4; 2 = substantially similar binding relative to parent).
T1 construct: Bought protein; also called CCK4; not shown: His tag
T1 sequence: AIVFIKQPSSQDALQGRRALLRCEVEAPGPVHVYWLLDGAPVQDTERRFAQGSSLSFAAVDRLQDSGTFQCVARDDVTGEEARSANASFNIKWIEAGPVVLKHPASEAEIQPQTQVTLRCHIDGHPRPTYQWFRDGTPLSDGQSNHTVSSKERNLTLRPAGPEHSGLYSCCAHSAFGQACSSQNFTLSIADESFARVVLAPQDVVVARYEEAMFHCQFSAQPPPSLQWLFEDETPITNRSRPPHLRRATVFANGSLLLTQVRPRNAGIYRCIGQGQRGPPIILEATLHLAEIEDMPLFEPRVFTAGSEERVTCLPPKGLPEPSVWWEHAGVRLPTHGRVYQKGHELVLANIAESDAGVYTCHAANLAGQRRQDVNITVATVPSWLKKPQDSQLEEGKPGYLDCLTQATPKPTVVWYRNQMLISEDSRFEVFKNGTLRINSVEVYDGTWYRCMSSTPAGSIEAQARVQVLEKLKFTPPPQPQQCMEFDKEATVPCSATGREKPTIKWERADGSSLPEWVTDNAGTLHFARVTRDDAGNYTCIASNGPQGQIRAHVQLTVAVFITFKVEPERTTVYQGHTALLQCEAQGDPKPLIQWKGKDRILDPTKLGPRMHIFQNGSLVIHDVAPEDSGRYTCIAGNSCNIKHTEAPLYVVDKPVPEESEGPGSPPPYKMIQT

Binding result, binds:
B1
B2
B3
B4
B5
B6
B7
B8
B9
B10
B11
B12
B13
B14
B15
B16
B17
B18
B19
